In this data set the target is full-length TF his-tag modified protein in yeast-derived microvesicles (TT-173): mature hTF with Asn124Ala mutation and six histidines at the C-terminus.

B1: activated coagulation Factor VII (purified commercial FVIIa) (protein)
chain: ANAFLEELRPGSLERECKEEQCSFEEAREIFKDAERTKLFWISYSDGDQCASSPCQNGGSCKDQLQSYICFCLPAFEGRNCETHKDDQLICVNENGGCEQYCSDHTGTKRSCRCHEGYSLLADGVSCTPTVEYPCGKIPILEKRNASKPQGRIVGGKVCPKGECPWQVLLLVNGAQLCGGTLINTIWVVSAAHCFDKIKNWRNLIAVLGEHDLSEHDGDEQSRRVAQVIIPSTYVPGTTNHDIALLRLHQPVVLTDHVVPLCLPERTFSERTLAFVRFSLVSGWGQLLDRGATALELMVLNVPRLMTQDCLQQSRKVGDSPNITEYMFCAGYSDGSKDSCKGDSGGPHATHYRGTWYLTGIVSWGQGCATVGHFGVYTRVSQYIEWLQKLMRSEPRPGVLLRAPFP
In the case of B1, the “amidolytic activity of the TF:FVIIa complex (chromogenic substrate S-2288), TT-173 with or without added PS” value is “there was no appreciable differences in the amidolytic activity between TT-173 with or without PS at the three concentrations of TT-173 tested, and at both concentrations of FVIIa used, 50 nM (not shown) or 500 nM (FIG. 7)”.

These data come from patent US20130059782.
